Molecular target: Protein encoded by the control plasmid pGBKT7-53
Assay: two-hybrid

Substance “Protein encoded by the control plasmid pGADT7-T (domain or fragment)” has a α-gal activity, fold over baseline (fold over baseline) of over 35000.
